Results from patent US8329186B2, “Treatment of inflammation using BST2 inhibitor” (Isu Abxis Co., Ltd, priority 2004, dated 2012).

Experiments:
[1] = system: U937 cells; assay: Homotypic aggregation of U937 cells induced by PMA and LPS; format: cell-based, human; details: decoy medium from CHO-S cells, in comparison with control medium
Procedure: Expression levels of Bst2 protein were examined during aggregation of human U937 monocytic cells. […] To determine the degree of cell aggregation, the size of formed cell aggregates was measured as pixel intensity, using Adobe's Photoshop software, version 7.0. The standard deviation values shown in drawings were calculated from mean values of six randomly selected aggregates. Thereafter, all used cells were recovered, and total RNA was isolated and subjected to RT-PCR using a set of primers of SEQ ID NOS:3 and 4 to assess Bst2 expression levels.
1×10^6 U937 cells, which had been cultured under the aforementioned conditions, were seeded onto a 96-well cell culture plate (NUNC) and treated with PMA (2 ng/ml, Calbiochem) and LPS (10 μg/ml, Calbiochem) for 24 hrs. The cells were then observed for the degree of homotypic cell aggregation under a phase-contrast inverted microscope (Olympus 1X71, state, USA).
U937 cells were pretreated with PMA and LPS to induce cell aggregation, and were treated with serial dilutions of medium (decoy medium) containing a Bst2 decoy transiently expressed in CHO-S cells.

[2] = system: IL-4, IL-5 and IL-13; assay: Ovalbumin-induced mouse model of asthma: cytokines in lung tissue (immunoblot); format: in vivo; details: ovalbumin-sensitized asthmatic mice
Procedure: A mouse model of asthma was prepared by sensitizing mice (C57B6, 8 weeks) with ovalbumin. In detail, mice were initially sensitized for five continuous days by intranasal injection of ovalbumin. After three weeks, mice were intranasally sensitized again with ovalbumin for five continuous days. One week after the secondary sensitization, mice were challenged intranasally with ovalbumin three times every 24 hrs to induce asthma. Herein, a Bst2 decoy was intravenously injected into mice 30 min before sensitization with ovalbumin, and was injected into mice 30 min before the first sensitization and the last injection of ovalbumin. Three days after the last injection, serum samples, lung tissues, and the like were collected from mice.
When a Bst2 or Damp1 decoy was injected into a mouse model of asthma which was induced by sensitization and challenge with ovalbumin, expression levels of cytokines (interleukin-4 (IL-4), interleukin-5 (IL-5) and interleukin-13 (IL-13)) were measured as follows. […] The bound primary antibodies were detected with a HRP-conjugated secondary antibody (anti-rabbit HRP-conjugated IgG) using ECL reagent.
Expression of 11-4, IL-5 and IL-13 was measured in the murine asthma model as described in Example 8-3 after injection with Bst2 decoy or Bst2 decoy Fc fusion proteins.

B1: Bst2 decoy: soluble Bst2 protein fragment having the amino acid sequence of SEQ ID NO:1; extracellular region of human Bst2, six-histidine tag (protein)
chain: NSEACRDGLRAVMECRNVTHLLQQELTEAQKGFQDVEAQAATCNHTVMALMASLDAEKAQGQKKVEELEGEITTLNHKLQDASAEVERLRRENQVLSVRIADKKYYPSSQDHHHHHH
Q: Which “decrease of U937 cell aggregation induced by PMA and LPS” value [1] does the source give for B1 here?
A: 50%

Q: And the “cytokine levels (IL-4, IL-5, IL-13) in lung tissue” value [2]?
A: decreased with increasing doses
